Laboratory results published in patent US11371056B2, “HPPD variants and methods of use” (BASF Agricultural Solutions Seed US LLC, priority 2017, dated 2022).

How the values were obtained:
[1] = test system: soybean plants (transgenic T0 events, wild-type); experiment: Greenhouse spray test of T0 soybean events with Cmpd. 1, leaf area damage score; format: in vivo; parameters: key to leaf area damage score, 25th percentile / leaf area damage score, Interquartile range: damage score 0 (no damage) to 100 (complete bleaching); details: for leaf area damage score, 25th percentile / leaf area damage score, 75th percentile / leaf area damage score, 90th percentile / leaf area damage score, Median: T0 soybean events expressing the polypeptide; for leaf area damage score, 25th percentile / leaf area damage score, 75th percentile / leaf area damage score, 90th percentile / leaf area damage score, Median / leaf area damage score, Interquartile range: five days after application of Cmpd. 1 at 300 g AI/ha; for leaf area damage score, 75th percentile / leaf area damage score, 90th percentile / leaf area damage score, Median: scale 0 to 100; for leaf area damage score, Median: 50th percentile; for leaf area damage score, Interquartile range: difference between 75th and 25th percentile, T0 soybean events
Text: Tolerant green shoots were transferred to rooting media or grafted. Rooted plantlets were transferred to the greenhouse after an acclimation period. Plants containing the transgene were then sprayed with HPPD inhibitor herbicides, as for example with mesotrione at a rate of 300-600 g AI/ha, or with Cmpd. 1 (2-chloro-3-(methylsulfanyl)-N-(1-methyl-1H-tetrazol-5-yl)-4-(trifluoromethyl)benzamide) at a rate of 150 g-300 g AI/ha supplemented with ammonium sulfate and methyl ester rapeseed oil. Five to ten days after the application, the symptoms due to the application of the herbicide were evaluated and compared to the symptoms observed on wild-type plants under the same conditions.
For example, T0 soybean plants having a “plant expression cassette”, which includes an HPPD inhibitor tolerant HPPD polypeptide of the present invention, were tested towards the tolerance of Cmpd. 1.
Prior greenhouse trials with the transgenic plants, soybean transformants were routinely analyzed for the expression and presence of the transgenes using the ELISA protein detection method (see detailed description under item D and H). Only plants recovering in the selection media and having a detectable HPPD transgene protein expression were used for the herbicide tolerance analysis. A DeVries Tracker Sprayer was calibrated prior to each spraying. The chemical formulation used for Cmpd. 1 was supplemented with ammonium sulfate and methylated rape seed oil. Spray tests were conducted with a concentration, which equals to 300 grams AI per hectare (300 g AI/ha).
In greenhouse trials, independent T0 soybean events containing an exemplary mutant HPPD polypeptide were sprayed with the HPPD inhibitor herbicide Cmpd. 1 (2-chloro-3-(methylsulfanyl)-N-(1-methyl-1H-tetrazol-5-yl)-4-(trifluoromethyl)benzamide) at the rate of 300 grams AI/ha, supplemented with ammonium sulfate and methyl ester rapeseed oil. Five days after the application, the leaf damaged area due to the HPPD inhibitor herbicide is scored in a scale from 0 (no damage) to 100 (complete bleaching). Under those conditions, the wild-type plants were completely bleached and their damage scores were in the 95-100 range.
Table 5 presents the distribution of the HPPD inhibitor herbicide damage score data as percentile for exemplary mutant HPPD inhibitor herbicide tolerant polypeptides (SEQ ID NOs). The percentiles normalize ranks of the damage score from an individual plant in a population. […] The median is the 50th percentile. Half the values had higher damage scores; half had lower damage scores. The value of the 75th and 90th percentile is the damage score where 75% and 90% of the soybean events had lower damage scores, respectively. The difference between the 75th and 25th percentile is called the interquartile range and a marker to quantify scattering in the population. All constructs had only one single cassette insertion in the soybean genome.

[2] = test system: Pseudomonas fluorescens HPPD polypeptide (wild-type and mutants); experiment: Coupled HPPD activity assay: turnover and residual turnover in crude HPPD polypeptide extracts with and without Cmpd. 1; format: biochemical; details: for Turnover: absence of Cmpd. 1; for Turnover / Residual turnover: changes in absorbance (OD) at 320 nm in the coupled assay, 30 min; for Residual turnover: presence of 100 μM Cmpd. 1
[3] = test system: soybean shoots; experiment: Soybean transformation, selection of shoots with tembotrione (greening or bleaching); format: in vivo; details: wild-type soybean shoots treated with tembotrione
Text: Soybean transformation was achieved by using methods well known in the art, such as the one described using the Agrobacterium tumefaciens mediated transformation soybean half-seed explants using essentially the method described by Paz et al. (2006), Plant cell Rep. 25:206. Transformants were identified by using the HPPD inhibitor herbicide “tembotrione” as selection marker. The appearance of green shoots was observed, and documented as an indicator of tolerance to the HPPD inhibitor herbicide tembotrione.

[4] = scale 0 (no damage) to 100 (complete bleaching)

Question: For `CSc1c(C(F)(F)F)ccc(C(=O)Nc2nnnn2C)c1Cl` [Cmpd. 1, 2-chloro-3-(methylsulfanyl)-N-(1-methyl-1H-tetrazol-5-yl)-4-(trifluoromethyl)benzamide, reference compound], which damage scores ([1]; wild-type soybean plants, Cmpd. 1 300 g AI/ha, five days after application, scale 0 (no damage) to 100 (complete bleaching)) is on record?
Answer: 95-100

Question: What about the Turnover [2] of the same molecule?
Answer: 0.236

Question: And the Residual turnover [2]?
Answer: 0.042

Question: With `CS(=O)(=O)c1ccc(C(=O)C2C(=O)CCCC2=O)c(Cl)c1COCC(F)(F)F` [tembotrione, 2-[2-chloro-4-(methylsulfonyl)-3-[(2,2,2,-trifluoroethoxy)methyl]benzoyl]-1,3-cyclohexanedione] as the molecule, how does the bleaching of shoots [3] read?
Answer: entirely bleached

B1: SEQ ID NO:62: mutant HPPD polypeptide: 213K 215A 264L 268G 270E 315Q 335P 336D 337S 340V 344Q 345M (protein)
chain: MADLYENPMGLMGFEFIEFASPTPGTLEPIFEIMGFTKVATHRSKNVHLYRQGEINLILNNEPNSIASYFAAEHGPSVCGMAFRVKDSQKAYNRALELGAQPIHIDTGPMELNLPAIKGIGGAPLYLIDRFGEGSSIYDIDFVYLEGVERNPVGAGLKVIDHLTHNVYRGRMVYWANFYEKLFNFREARYFDIKGEYTGLTSKAMSAPDGMIKIALNEESSKGAGQIEEFLMQFNGEGIQHVAFLTDDLVKTWDALKKIGMRFLTAPGDEYYEMLEGRLPDHGEPVDQLQARGILLDGSSVEGDKRLLLQIFSEQLMGPVFFEFIQRKGDDGFGPDSFKVLFEQMERDQVRRGVLTAD
modifications: mutant HPPD polypeptide
notes: mutant HPPD polypeptide: 213K 215A 264L 268G 270E 315Q 335P 336D 337S 340V 344Q 345M
Question: Which results are given for B1?
Answer: leaf area damage score, 25th percentile [1, 4]: 10.0; leaf area damage score, 75th percentile [1]: 25.0; leaf area damage score, 90th percentile [1]: 35.0; leaf area damage score, Median [1]: 15.0; leaf area damage score, Interquartile range [1]: 15.0; turnover and residual turnover, comparison in words ([2]; 100 μM Cmpd. 1, Table 3): increase significantly the turnover and the residual turnover; Residual turnover [%] ([2]; 100 μM Cmpd. 1, normalised to turnover without inhibitor): 79%; Turnover [2]: 0.209; Residual turnover [2]: 0.166

B2: SEQ ID NO: 45 (protein)
chain: MADLYENPMGLMGFEFIEFASPTPGTLEPIFEIMGFTKVATHRSKNVHLYRQGEINLILNNEPNSIASYFAAEHGPSVCGMAFRVKDSQKAYNRALELGAQPIHIDTGPMELNLPAIKGIGGAPLYLIDRFGEGSSIYDIDFVYLEGVERNPVGAGLKVIDHLTHNVYRGRMVYWANFYEKLFNFREARYFDIKGEYTGLTSKAMSAPDGMIKIPLNEESSKGAGQIEEFLMQFNGEGIQHVAFLTDDLVKTWDALKKIGMRFMTAPGDEYYEMLEGRLPDHGEPVDQLQARGILLDGSSVEGDKRLLLQIFSETLMGPVFFEFIQRKGDDGFGPHSFKVLFESMERDQVRRGVLTAD
modifications: mutant HPPD polypeptide
Question: How did the “leaf area damage score, 25th percentile” value [1, 4] turn out when B2 was run?
Answer: 10.0

Question: What about the “leaf area damage score, 75th percentile” value [1] of the same molecule?
Answer: 25.0

Question: What about the “leaf area damage score, 90th percentile” value [1] of the same molecule?
Answer: 35.0

Question: And the “leaf area damage score, Median” value [1]?
Answer: 15.0

Question: And the “leaf area damage score, Interquartile range” value [1]?
Answer: 15.0

B3: SEQ ID NO: 64 (protein)
chain: MADLYENPMGLMGFEFIEFASPTPGTLEPIFEIMGFTKVATHRSKNVHLYRQGEINLILNNEPNSIASYFAAEHGPSVCGMAFRVKDSQKAYNRALELGAQPIHIDTGPMELNLPAIKGIGGAPLYLIDRFGEGSSIYDIDFVYLEGVERNPVGAGLKVIDHLTHNVYRGRMVYWANFYEKLFNFREARYFDIKGEYTGLTSKAMSAPDGMIKIPLNEESSKGAGQIEEFLMQFNGEGIQHVAFLTDDLVKTWDALKKIGMRFLTAPGDEYYEMLEGRLPDHGEPVDQLQARGILLDGSSVEGDKRLLLQIFSEQLMGPVFFEFIQRKGDDGFGPHSFKVLFESMERDQVRRGVLTAD
modifications: mutant HPPD polypeptide
Question: Which “leaf area damage score, 25th percentile” value [1, 4] does the source give for B3 here?
Answer: 5.0

Question: What about the “leaf area damage score, 75th percentile” value [1] of the same molecule?
Answer: 25.0

Question: And the “leaf area damage score, 90th percentile” value [1]?
Answer: 38.0

Question: What about the “leaf area damage score, Median” value [1] of the same molecule?
Answer: 10.0

Question: What about the “leaf area damage score, Interquartile range” value [1] of the same molecule?
Answer: 20.0

B4: SEQ ID NO: 2 (protein)
chain: MADLYENPMGLMGFEFIEFASPTPGTLEPIFEIMGFTKVATHRSKNVHLYRQGEINLILNNEPNSIASYFAAEHGPSVCGMAFRVKDSQKAYNRALELGAQPIHIDTGPMELNLPAIKGIGGAPLYLIDRFGEGSSIYDIDFVYLEGVERNPVGAGLKVIDHLTHNVYRGRMVYWANFYEKLFNFREARYFDIKGEYTGLTSKAMSAPDGMIRIPLNEESSKGAGQIEEFLMQFNGEGIQHVAFLTDDLVKTWDALKKIGMRFMTAPPDTYYEMLEGRLPDHGEPVDQLQARGILLDGSSVEGDKRLLLQIFSETLMGPVFFEFIQRKGDDGFGPWNFAQLFESIERDQVRRGVLTAD
modifications: mutant HPPD polypeptide
Question: Which results are given for B4?
Answer: leaf area damage score, 25th percentile [1, 4]: 15.0; leaf area damage score, 75th percentile [1]: 45.0; leaf area damage score, 90th percentile [1]: 87.0; leaf area damage score, Median [1]: 20.0; leaf area damage score, Interquartile range [1]: 30.0

B5: SEQ ID NO: 23 (protein)
chain: MADLYENPMGLMGFEFIEFASPTPGTLEPIFEIMGFTKVATHRSKNVHLYRQGEINLILNNEPNSIASYFAAEHGPSVCGMAFRVKDSQKAYNRALELGAQPIHIDTGPMELNLPAIKGIGGAPLYLIDRFGEGSSIYDIDFVYLEGVERNPVGAGLKVIDHLTHNVYRGRMVYWANFYEKLFNFREARYFDIKGEYTGLTSKAMSAPDGMIRIPLNEESSKGAGQIEEFLMQFNGEGIQHVAFLTDDLVKTWDALKKIGMRFMTAPGDEYYEMLEGRLPDHGEPVDQLQARGILLDGSSVEGDKRLLLQIFSEQLMGPVFFEFIQRKGDDGFGPHSFKVLFESIERDQVRRGVLTAD
modifications: mutant HPPD polypeptide
Question: With B5 as the molecule, how does the “leaf area damage score, 25th percentile” value [1, 4] read?
Answer: 10

Question: What about the “leaf area damage score, 75th percentile” value [1] of the same molecule?
Answer: 22.5

Question: What about the “leaf area damage score, 90th percentile” value [1] of the same molecule?
Answer: 55.0

Question: And the “leaf area damage score, Median” value [1]?
Answer: 10

Question: And the “leaf area damage score, Interquartile range” value [1]?
Answer: 12.5

B6: SEQ ID NO: 43 (protein)
chain: MADLYENPMGLMGFEFIEFASPTPGTLEPIFEIMGFTKVATHRSKNVHLYRQGEINLILNNEPNSIASYFAAEHGPSVCGMAFRVKDSQKAYNRALELGAQPIHIDTGPMELNLPAIKGIGGAPLYLIDRFGEGSSIYDIDFVYLEGVERNPVGAGLKVIDHLTHNVYRGRMVYWANFYEKLFNFREARYFDIKGEYTGLTSKAMSAPDGMIKIPLNEESSKGAGQIEEFLMQFNGEGIQHVAFLTDDLVKTWDALKKIGMRFMTAPGDEYYEMLEGRLPDHGEPVDQLQARGILLDGSSVEGDKRLLLQIFSEKLMGPVFFEFIQRKGDDGFGPHSFKVLFESMERDQVRRGVLTAD
modifications: mutant HPPD polypeptide
Question: What does the source list for B6?
Answer: leaf area damage score, 25th percentile [1, 4]: 10.0; leaf area damage score, 75th percentile [1]: 25.0; leaf area damage score, 90th percentile [1]: 35.0; leaf area damage score, Median [1]: 10.0; leaf area damage score, Interquartile range [1]: 15.0
